The record followed here is PMC8191316, “Structural basis for CD97 recognition of the decay-accelerating factor CD55 suggests mechanosensitive activation of adhesion GPCRs” (The Journal of Biological Chemistry, 2021).

First the molecules themselves.
B1: CD55 SCR1–4 domains (35–285), His-tagged (domain or fragment)
chain: DCGLPPDVPNAQPALEGRTSFPEDTVITYKCEESFVKIPGEKDSVICLKGSQWSDIEEFCNRSCEVPTRLNSASLKQPYITQNYFPVGTVVEYECRPGYRREPSLSPKLTCLQNLKWSTAVEFCKKKSCPNPGEIRNGQIDVPGGILFGATISFSCNTGYKLFGSTSSFCLISGSSVQWSDPLPECREIYCPAPPQIDNGIIQGERDHYGYRQSVTYACNKGFTMIGEHSIYCTVNNDEGEWSGPPPECRG

Test [1] concerns the target CD55 SCR1–4 domains (35–285), His-tagged (human) (UniProt P08174). In words: SPR; Biacore T200; His-tagged CD55 immobilized on nickel coated NTA chip; CD97 (WT, mutants) or EMR2 without His-tag injected at 50 μl/min for 2 min; 20 mM Tris, pH 7.5, 200 mM NaCl, 2 mM CaCl2, 0.05% Tween 20.
Test [2] addresses T1, CD97 EGF_(1,2,5) fragment D81A, without His-tag (human, UniProt P48960-2 21-165, D81A).
T1 sequence: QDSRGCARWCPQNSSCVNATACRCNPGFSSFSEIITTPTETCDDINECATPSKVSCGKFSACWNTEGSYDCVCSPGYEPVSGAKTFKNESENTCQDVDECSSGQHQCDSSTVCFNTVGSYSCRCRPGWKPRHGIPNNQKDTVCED
In words: SPR.

Test [3] has as its target T2, CD97 EGF_(1,2,5) fragment V137A, without His-tag (human, UniProt P48960-2 21-165, V137A).
T2 sequence: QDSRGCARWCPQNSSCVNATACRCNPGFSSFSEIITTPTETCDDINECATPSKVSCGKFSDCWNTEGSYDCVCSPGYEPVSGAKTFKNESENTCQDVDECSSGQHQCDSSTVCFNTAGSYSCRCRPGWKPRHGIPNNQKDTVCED
Description: SPR.

For test [4], the target named is T3, CD97 EGF_(1,2,5) fragment D63L, without His-tag (human, UniProt P48960-2 21-165, D63L).
T3 sequence: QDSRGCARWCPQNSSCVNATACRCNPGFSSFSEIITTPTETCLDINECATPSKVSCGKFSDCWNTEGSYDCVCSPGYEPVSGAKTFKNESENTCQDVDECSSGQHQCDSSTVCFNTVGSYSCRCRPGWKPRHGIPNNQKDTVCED
In words: SPR.

In test [5] the target is T4, CD97 EGF_(1,2,5) fragment E86A, without His-tag (human, UniProt P48960-2 21-165, E86A).
T4 sequence: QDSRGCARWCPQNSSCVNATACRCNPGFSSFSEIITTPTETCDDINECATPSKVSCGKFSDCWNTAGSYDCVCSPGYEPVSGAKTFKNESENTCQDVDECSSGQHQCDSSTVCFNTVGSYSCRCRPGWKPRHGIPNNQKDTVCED
In words: SPR.

Test [6] addresses B1. In words: SPR.
Test [7] addresses T5, CD55 SCR1–4 domains (35–285), His-tagged (human, UniProt P08174 35-285).
T5 construct: CD55 (complement decay-accelerating factor), human, UniProt P08174, SCR1–4 domains, residues 35–285; Vector pLEXm with N-terminal signal peptide; codon-optimized gene; In the crystal and SAXS rows it stood as the C-terminal part of the chimera m9; also called decay-accelerating factor; not shown: His6, C-terminal, kept
T5 sequence (looked up): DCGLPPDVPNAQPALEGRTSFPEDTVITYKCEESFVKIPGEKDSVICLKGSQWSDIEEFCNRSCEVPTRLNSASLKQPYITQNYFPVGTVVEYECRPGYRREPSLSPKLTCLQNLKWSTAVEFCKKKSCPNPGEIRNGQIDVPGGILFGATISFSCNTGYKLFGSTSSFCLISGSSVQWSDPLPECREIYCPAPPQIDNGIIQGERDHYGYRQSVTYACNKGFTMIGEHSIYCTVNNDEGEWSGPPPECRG
Description: SPR; Biacore T200; His-tagged CD55 immobilized on nickel coated NTA chip; CD97 (WT, mutants) or EMR2 without His-tag injected at 50 μl/min for 2 min; 20 mM Tris, pH 7.5, 200 mM NaCl, 2 mM CaCl2, 0.05% Tween 20. As to conditions: both partners purified.

In test [1], “CD97 EGF_(1,2,5) fragment, WT, without His-tag (SPR construct with TEV site) (from UniProt P48960-2 21-165) (domain or fragment)” returned a Kd of 3.2 µM, a koff of 0.00173 s⁻¹ and a kon of 546 M⁻¹ s⁻¹. For B1, the koff is 0.00122 s⁻¹ in test [2], 0.00163 s⁻¹ in test [3], 0.000968 s⁻¹ in test [4] and 0.00141 s⁻¹ in test [5].

B2: EMR2 EGF_(1,2,5) (24–168) fragment, His6 removed (domain or fragment)
chain: QDSRGCARWCPQDSSCVNATACRCNPGFSSFSEIITTPMETCDDINECATLSKVSCGKFSDCWNTEGSYDCVCSPGYEPVSGAKTFKNESENTCQDVDECSSGQHQCDSSTVCFNTVGSYSCRCRPGWKPRHGIPNNQKDTVCED
Take B2: in test [6], the off-rate (koff) is 0.00149 s⁻¹. Further, the Kd in test [1] worked out at 43 µM.

B3: CD97 EGF_(1,2,5) fragment D63L, without His-tag (domain or fragment, human, UniProt P48960-2 21-165, looked up)
chain: QDSRGCARWCPQNSSCVNATACRCNPGFSSFSEIITTPTETCLDINECATPSKVSCGKFSDCWNTEGSYDCVCSPGYEPVSGAKTFKNESENTCQDVDECSSGQHQCDSSTVCFNTVGSYSCRCRPGWKPRHGIPNNQKDTVCED
notes: CD97, human, EGF_(1,2,5) isoform fragment, residues 21–165, with D63L; Made by overlapping PCR, cloned to the same vector as m3; not shown: His6, C-terminal, cleaved
In test [7], B3 came in with a Kd of 85.2 µM.

B4: CD97 EGF_(1,2,5) fragment V137A, without His-tag (domain or fragment, human, UniProt P48960-2 21-165, looked up)
chain: QDSRGCARWCPQNSSCVNATACRCNPGFSSFSEIITTPTETCDDINECATPSKVSCGKFSDCWNTEGSYDCVCSPGYEPVSGAKTFKNESENTCQDVDECSSGQHQCDSSTVCFNTAGSYSCRCRPGWKPRHGIPNNQKDTVCED
notes: CD97, human, EGF_(1,2,5) isoform fragment, residues 21–165, with V137A (in EGF5); Made by overlapping PCR, cloned to the same vector as m3; also called V137A mutant; not shown: His6, C-terminal, cleaved
Regarding B4, binding in test [7] was characterised by a dissociation constant (Kd) of 25.3 µM.

B5: CD97 EGF_(1,2,5) fragment D81A, without His-tag (domain or fragment, human, UniProt P48960-2 21-165, looked up)
chain: QDSRGCARWCPQNSSCVNATACRCNPGFSSFSEIITTPTETCDDINECATPSKVSCGKFSACWNTEGSYDCVCSPGYEPVSGAKTFKNESENTCQDVDECSSGQHQCDSSTVCFNTVGSYSCRCRPGWKPRHGIPNNQKDTVCED
notes: CD97, human, EGF_(1,2,5) isoform fragment, residues 21–165, with D81A; Made by overlapping PCR, cloned to the same vector as m3; not shown: His6, C-terminal, cleaved
On to B5, for which binding in test [7] was characterised by a dissociation constant (Kd) of 66.4 µM.

B6: CD97 EGF_(1,2,5) fragment E86A, without His-tag (domain or fragment, human, UniProt P48960-2 21-165, looked up)
chain: QDSRGCARWCPQNSSCVNATACRCNPGFSSFSEIITTPTETCDDINECATPSKVSCGKFSDCWNTAGSYDCVCSPGYEPVSGAKTFKNESENTCQDVDECSSGQHQCDSSTVCFNTVGSYSCRCRPGWKPRHGIPNNQKDTVCED
notes: CD97, human, EGF_(1,2,5) isoform fragment, residues 21–165, with E86A; Made by overlapping PCR, cloned to the same vector as m3; not shown: His6, C-terminal, cleaved
Regarding B6, the affinity in test [7], expressed as Kd, was 17.6 µM. Against the preceding molecule, the Kd is about 3.8-fold lower.
